One assay relates to pMLC. Description: Force transmission via ligand conjugated magnetic beads. In kind it is cell-based, human. Here is the method: The ligands were conjugated to 4.5 μm epoxide paramagnetic beads (Dynabeads M-450 Epoxy, Thermo Fisher Scientific) according to the manufacturer's manual. Briefly, the beads were washed twice in 0.1 M sodium phosphate buffer, pH 7.4. Subsequently. 8×10^7 beads were conjugated to 20 μg sAgrin, BSA and FN per in 0.1 M sodium phosphate buffer at pH 7.4 for 16-18 h at 4° C. with gentle rotation throughout. The degree of protein conjugation to the beads was verified by a reducing SDS-PAGE gel analysis using a subset of ligand conjugated beads. The remaining beads were washed and subsequently stored in 0.1% BSA-phosphate buffered saline (PBS) pH 7.4 at 4° C. They were subsequently suspended in medium and added on the cells for 30 min at 37° C. After a brief wash with PBS to remove excess non-adherent beads, the cells were placed under a permanent neodymium magnet (J Magnetics, USA) at a distance of 6 mm apart for another 30 min that allowed a vertical tensile force in the magnitudes of ˜200 pN on the beads. The cells were then fixed in 4% paraformaldehyde, permeabilized and processed for immunofluorescence.

In another assay the test system is HaCaT cells. Description: Traction force microscopy and PIV of collective migration. In kind it is cell-based, human. The protocol:
Substrate preparation—Two-part silicone elastomer, DOWSIL CY52-276 (Dow Inc.), is first mixed thoroughly in a 1:1 weight ratio. The mixture is then poured into a 35 mm glass-bottom culture dish (iwaki 3930-035, Asahi Techno Glass Corporation, Japan) placed on a level surface, to a thickness of ˜500 μm. After pre-curing overnight, the silicone coated culture dish is further baked for 2 hours at 80° C. to fully cure. To maximize subsequent microsphere attachment, the silicone film is pre-treated with (3-aminopropyl) triethoxysilane (A3648, Sigma-Aldrich). To silanize, a 1 ml solution containing 96% v/v, 2% v/v APTES and 1% v/v acetic acid (A6283, Sigma Aldrich) is added to the glass-bottom culture dish, covering the whole silicone film, and left for 10 minutes to react. The silicone film is then twice rinsed with 96% v/v ethanol and followed by a quick dip in Milli-Q water to remove all the solution: removing solution from the film this way is preferred over blow-drying with nitrogen gas because the latter may introduce dust to the surface which subsequently affects the uniformity of attached microsphere distribution. Following this, the culture-dish is baked at 80° C. for another 2 hours to promote siloxane bond formation. For the physisorption of fluorescent latex microspheres on to the silicone film, 6 μl of 100 nm orange fluorescent (540/560) carboxylate-modified microspheres (F8800, ThermoFisher Scientific) is first diluted in 10 ml of Milli-Q water and sonicated for 10 minutes. The diluted microspheres are then passed through a 0.22 μm filter directly into a 15 ml falcon tube containing 500 μl of 500 mM MES buffer, pH 6.0 (M3671, Sigma Aldrich). The microspheres are then sonicated again for 10 minutes before being added to cover the APTES silanized silicone film within the culture dish previously prepared. The solution was left for 5 minutes to allow the microspheres to attach. […] The stiffness of silicone substrates used for TFM were determined by atomic force microscopy as per previously established protocols as described in the section below. […]

[1] abbreviates: Agrin depleted cells supplemented with sAgrin.

B1: sAgrin: C-terminus recombinant Agrin fragment containing 8 amino acid 'Z8' insert and LG3 domain (SEQ ID NO: 7), His-tagged, expressed in E. coli (protein)
chain: DTLAFDGRTFVEYLNAVTESELANEIPVEKALQSNHFELSLRTEATQGLVLWSGKATERADYVALAIVDGHLQLSYNLGSQPVVLRSTVPVNTNRWLRVVAHREQREGSLQVGNEAPVTGSSPLGATQLDTDGALWLGGLPELPVGPALPKAYGTGFVGCLRDVVVGRHPLHLLEDAVTKPELRPCPTP
modifications: His tag
Take B1: the “pMLC recruitment with increasing sAgrin coated beads” value in the assay on pMLC (30 min post-wound scratch) is “greater pMLC recruitment at 30 min post-wound scratch in a dose-dependent fashion”. In the assay with pMLC (30 min post-wounding), the “pMLC intensity in MMP12 depleted cells after force transmission” value is given as “unable to rescue the reduced pMLC intensity” and the “pMLC recruitment near beads in control cells with exogenous force” value is “further surged pMLC recruitment”. Also, in the assay on pMLC (30 min post-wounding, compared to FN or BSA beads), the “pMLC recruitment upon force in Agrin depleted cells (confocal)” value is reported as “enhanced pMLC recruitment upon force application”. Moreover, the “MMP12 recruitment in pMLC activated regions” value in the assay on pMLC (Agrin depleted cells, force transmission) is listed as “effectively enhanced MMP12 recruitment in pMLC activated regions”. For the same molecule, the “increase of pMLC around the bead vicinity” value with pMLC (Agrin depleted cells, force with sAgrin beads 30 min) is on record as roughly 2 folds. In addition, in the assay on pMLC (control migrating keratinocytes, ligand beads, force), the “activated integrin β1-Agrin localization” value is listed as “substantially increased activated integrin β1-Agrin localization”. For the same molecule, the “rescue of reduced pMLC in Agrin depleted cells by force through ligand beads” value in the assay with pMLC (siAgrin cells) was “only restored by force transduced by sAgrin”. The “traction force at migrating leading edge of MMP12 depleted keratinocytes” value in the assay with HaCaT cells (10 μg/ml sAgrin 18-24 h) is listed as “failed to induce sufficient traction force”. Besides, in the assay on HaCaT cells (setting [1]), the “collective traction stress at the leading front” value was “significantly enhanced”; the “coordinated velocity fields and fluidic collective migration (PIV)” value was “significantly enhanced”.

The record behind these values is US20230257435A1, “Wound Healing Composition and Uses Thereof” (AGENCY FOR SCIENCE, TECHNOLOGY AND RESEARCH, priority 2020, published 2023).
